Holding throughout (details): both partners purified
The target of assay [1] is GABARAP-L1 (recombinant, BLI) (human, UniProt Q9H0R8 1-117). Put plainly: BLI; biotinylated LIR peptide (50 μg/ml) immobilised on streptavidin biosensor, ATG8 in solution; Octet Red 96; 25 mM Tris pH 7.5, 150 mM NaCl, 0.5 mM TCEP, 0.1% Tween-20, 1 mg/ml BSA; 25 °C; Kd from response against concentration. (In general: BLI is a label-free optical method that tracks binding on a fibre tip over time.)

The target in assay [2] is T1, GABARAP (recombinant, BLI) (human, UniProt O95166 1-117).
T1 construct: full-length human GABARAP; also called WT GABARAP; source: recombinant; bacterial expression plasmid pAL
The assay is described as above.

In the next assay the target is LC3B (recombinant, BLI) (human, UniProt Q9GZQ8 1-120). The assay is described as above.
Assay [3] deals with T2, GABARAP-L2 (recombinant, BLI) (human, UniProt P60520 1-117).
T2 construct: human GABARAP-L2; source: recombinant; bacterial expression plasmid pAL
T2 sequence (P60520 whole entry): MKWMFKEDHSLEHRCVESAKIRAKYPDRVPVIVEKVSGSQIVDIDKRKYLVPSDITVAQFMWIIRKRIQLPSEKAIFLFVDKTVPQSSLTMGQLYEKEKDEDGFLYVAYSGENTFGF
The assay is described as above.

Another assay has as its target T3, LC3A (human, UniProt Q9H492 1-121).
T3 construct: LC3A, human, full length; The plasmid has a 3C protease site after GST; source: recombinant, expressed in bacteria from the pAL plasmid (modified pGEX-6P2)
Put plainly: BLI; biotinylated LIR peptide immobilised on streptavidin biosensors (Octet Red 96), ATG8 protein in solution; 25 mM Tris pH 7.5, 150 mM NaCl, 0.5 mM TCEP, 0.1% Tween-20, 1 mg/ml BSA, 25 °C; Kd from response against concentration, Y=Rmax*X/(Kd+X).

The target of a further assay is T4, LC3C (human, UniProt Q9BXW4 1-126).
T4 construct: LC3C, human, full length; The plasmid has a 3C protease site after GST; source: recombinant, expressed in bacteria from the pAL plasmid (modified pGEX-6P2)
The assay is described as above.

The target of another assay is T5, GABARAP (human, UniProt O95166 1-117).
T5 construct: GABARAP, human, full length; The plasmid has a 3C protease site after GST; also called GABARAP WT; source: recombinant, expressed in bacteria from the pAL plasmid (modified pGEX-6P2)
Described as above.

Ends that are not written are not given here.

Sequence of GABARAP-L1 (recombinant, BLI) (Q9H0R8 whole entry, looked up): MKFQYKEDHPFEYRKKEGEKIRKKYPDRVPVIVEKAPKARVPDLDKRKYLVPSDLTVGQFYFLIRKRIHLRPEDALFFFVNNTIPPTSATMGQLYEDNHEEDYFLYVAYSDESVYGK

B1: ATG13 LIR peptide (biotinylated, BLI) (peptide)
chain: GGSSGNTHDDFVMIDFKPAFSKDD
modifications: also: biotin, position not given here
As a reminder, the Kd is a measure of binding affinity in units of concentration. For the molecule B1, the figures for the Kd in assay [1] and in assay [2] were 0.53 µM and 0.59 µM, respectively.

B2: p62 LIR peptide (biotinylated, BLI) (peptide)
chain: SDNCSGGDDDWTHLSSKEVDPSTG
modifications: also: biotin, position not given here
With B2, the Kd was found to be 4.5 µM in the assay with LC3B (recombinant, BLI) and 5.2 µM in assay [3].

B3: FIP200 LIR peptide (biotinylated, BLI) (peptide)
chain: PDSIDAHTFDFETIPHPNIEQTIH
modifications: also: biotin, position not given here
For the molecule B3, the equilibrium dissociation constant (Kd) in assay [1] came out at 7 µM; in assay [2], 5.6 µM.

B4: ULK1 (aa 353-369) LIR peptide (peptide, UniProt O75385 353-369, looked up)
peptide: DTDDFVMVPAQFPGDLV
modifications: not fully specified (N-terminus); also: biotinylated, position not given here
notes: source: synthetic peptide
For the molecule B4, the values for the Kd with LC3A, with LC3C and in the assay with GABARAP were 7.71 µM, 1.9 µM and 0.116 µM, respectively.

For the origin of these results see article PMC6499816 (Nature Communications, 2019).
